Data reported in article PMC8982864 (PLoS Biology, 2022).

Assays:
Assay in all cases: ELISA
[1] = molecular target: CSPG4 domain 1 fragment D1_(401-560) with C-terminal GFP tag (UniProt Q6UVK1)
[2] = molecular target: truncated wild-type TcdB (residues 550-1902) (Clostridioides difficile (VPI 10463 …, UniProt P18177 550-1902)); details: both partners purified
[3] = molecular target: full-length Clostridioides difficile Toxin B (TcdB), C-terminal 6XHis-tag (Clostridioides difficile (VPI 10463 …, UniProt P18177 1-2366)); details: both partners purified

Row | Molecule | binding result [3] | further results
1 | truncated TcdB (550-1902) [change] (from UniProt P18177 550-1902) (domain or fragment) |  | fold reduction of binding against wild type [1]: 1 fold
2 | CSPG4 domain 1 fragment D1_(401-560) with C-terminal GFP tag (domain or fragment, UniProt Q6UVK1 401-560, looked up, not shown: GFP, C-terminal, kept) LAPEAWPAMELPEPCVPEPGLPPVFANFTQLLTISPLVVAEGGTAWLEWRHVQPTLDLMEAELRKSQVLFSVTRGARHGELELDIPGAQARKMFTLLDVVNRKARFIHDGSEDTSDQLVLEVSVTARVPMPSCLRRGQTYLLPIQVNPVNDPPHIIFPHG |  | binding result [2]: binds
3 | D1_(401-560) D457A, C-terminal GFP tag (domain or fragment, not shown: GFP, C-terminal, kept) LAPEAWPAMELPEPCVPEPGLPPVFANFTQLLTISPLVVAEGGTAWLEWRHVQPTLALMEAELRKSQVLFSVTRGARHGELELDIPGAQARKMFTLLDVVNRKARFIHDGSEDTSDQLVLEVSVTARVPMPSCLRRGQTYLLPIQVNPVNDPPHIIFPHG | binds | 
4 | D1_(401-560) E460A, C-terminal GFP tag (domain or fragment, not shown: GFP, C-terminal, kept) LAPEAWPAMELPEPCVPEPGLPPVFANFTQLLTISPLVVAEGGTAWLEWRHVQPTLDLMAAELRKSQVLFSVTRGARHGELELDIPGAQARKMFTLLDVVNRKARFIHDGSEDTSDQLVLEVSVTARVPMPSCLRRGQTYLLPIQVNPVNDPPHIIFPHG | binds | 
